Here are results for 1 substance from patent US20200071775A1.

The target of the assay is potato virus Y (PVY). Kind of assay: sandwich ELISA, PVY captured by PVY capture antibody (Agdia), phage at 3 µg/ml, anti-M13 HRP detection. (ELISA stands for enzyme-linked immunosorbent assay.)

Consider “M13KO7 bacteriophage (from UniProt P69168 19-424; P69530 1-112; P69541 24-73)”, for which the improved sensitivity compared to the existing antibody (PVY detection antibody, Agdia) is 25%.
